The values below come from the domain aggregation screens of Martell et al. (2025).

The series can be described thus: soluble fraction after stress (log2 fold change); higher = more stays soluble; pooled small domains, quantitative proteomics. Conditions: stress: 50 degC. The procedure, abridged:
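Quantitative proteomics served as the high-throughput read-out for pooled custom libraries of small protein domains. Each was stressed at 50°C. Aggregation propensity is expressed as the base-two log fold change in soluble protein after stress. A higher value means a larger share of the protein remains in solution.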
“HMGSWEDALKNWVDSALASGQKGILEQAVPKFERIMIETALTHTAGRRRDASLLLGWGRNTLTRKIKELGI”: the “soluble fraction (log2)” value was -0.214.
As for “HMGTAESIRLFLSSGLIKGVGEALAGRIVDTFGTDTFDIIENHPELLAGVKGISHRLAMSIYESFSQHIGV”, the “soluble fraction (log2)” value is -1.03.
“HMGTDIGADKAAQTALADAGLSSSQVTGLRTKQDWDDGQLRYEVEFRAGGVEYDYELAADGTILKADRDT”: the “soluble fraction (log2)” value is 0.247.
For the sequence “HMGTEITEQRAKEIALENAKVAESDVTAMRVKKEMDDGVWRYDVEFYVQNKEYDYEINAMDGTILSVDYD”, the “soluble fraction (log2)” value is -0.04.
The result for “HMGTESFGARIRKIREARDWTPAALAEATGQTPEFVARVERDEVAPPVAFLLRLAAALGVDPSTF” reads -0.123.
The result for “HMGTGADKNSWTIGDKVKHRKWGTGTVVKVTGAGEDAELDIAFKSEGIKRLLAAFAPIEKVK” reads -0.034.
For “HMGTHDAGTRFFDNLDSLLQNRDATRADVLAVYLLAVSLGFRGKHRSVSSAPQIAHYRNQAYVTLFQ” the value was 0.546.
With “HMGTIEQAFKGKAPGSAHLYDRARAVLAGGVTHDTRIHAPFPIMVQRALGARKWDVDGNEYIDY”, the “soluble fraction (log2)” value was 0.0863.
As for “HMGTMKGFVDGSSVHLRSGPSLSESIRAKVVKGQTLYITERRGDWYRATVHGGGEGWIHTSLVKLAG”, the “soluble fraction (log2)” value came to 0.178.
The result for “HMGTPLYLLLAAEVRDRIATEQLAPHTAVPSERELAELHGVSRMTARQALALLESEGLVYRNPPRGTFVAE” reads -0.85; that for “HMGTQIKSPMPGTILDVRVNVGDTVKEGDILMILEAMKMENEILAPVSGKVAAIQVSKGTAVNSGDLLAVL”, 0.224; that for “HMGTRHPLPYAYARANTVLLEDDGDRLVLWAPENVSLTALGEVLRRFDVDALERESSSTLANRIAVAYAG”, -0.751.
For the sequence “HMGTTLTKIPGIGENRARLLLRHFGSLRAVREADADALAAVKGMTRPAAEAIVRYFEQQDAEGRRD”, the “soluble fraction (log2)” value is 0.21.
For “HMGTTTPPATRKGKVTSSFLNVRSGPSTANAKVAELKQNAVVTIYETSSNGWHRIGVNQWVIGTNIQE” the value was -0.441; for “HMGTVSSGSSSTDTPFSLGEIVRHKVFGEGVVLSIEGQGDASRIQINFNTAGTKWLVTAYADLEK”, -0.219.
The result for “HMGTVVKRNALVHAWTEFNGGRASTKLLALGPGKVGEWIELENPQSGRKLRGEVQVDGSVRLG” reads 0.11.
In the case of “HMGTWKKIGTMTATVNDLYVRETPNGYIMGFINKGTVVEVDGKTTGKWTHAKVEGIGVGWIWTGYLDK”, the “soluble fraction (log2)” value is -3.47.
For “HMGTYYTEIIAQLKKEIANGTWKLGERLPGELALAKQFNVSRSSIREALKALAYAGIVESKPGRGTFLLHV” the value was -0.875; for “HMGVAAEDPDEAEKGAHSLKSSAANVGAEVVRGLAGEIESAASSGDVEAVRTILPGLEDAYSQAITDLET”, 0.0162.
For “HMGVDMGPAKYVGQKALTATEMRPAGKIQIGQTVFDAVSVGPFIGARKAVKVIKYENAQLYVEPE”, the “soluble fraction (log2)” value was found to be 0.00597.
For “HMGVEVEVPNVKGKLVADAEYELGLAQLTPVRTDSAYNRNLPPGTVLEQLPASGSHVKEGREIYLTINST” the value was 0.264; for “HMGVGERIKARRKEIGLSAEQVAKELGVSPATVYRYESNDIMNMRIDKLEPIAKALHTTPAYLMGWE”, -0.0318; for “HMGVGVKSTEVDYQRTSSGSDIPTDDAAWTKTIPAVKVNTFLWTRTKINYTDGTSAIFYSVGY”, -0.281.
For “HMGVGVPVTLLLEKLGEDTLSAQQIMERLGLKSRASFRKVYLVPALEQKLIEMEFPDKPNSSKQRYRR” the value was -0.853; for “HMGVISRVITFWQNGFTVDDGPLRAFDDPANMAFMESIGRGEAPAELAPKTRTQRVNINLVQRHEPYSAPK”, -0.0726.
The result for “HMGVITVRPPIVVRDFAIALNLKPFQVIGNLMELNKVVSVSSVIEEADARKVAERHGYTLEIRH” reads -0.516; that for “HMGVMNEYEELRDRYLTGQIWKIGDLVEAKGIEGKIIQRGTNYITFNDSQGKVHKAWLHEIKV”, 0.184; that for “HMGVNNDIIKHRKLEFMIEMLPDTFTRKEANEIGEGLGISLATLTRYLSSDAFERTGHGRYRKKD”, -1.08.
For “HMGVPTEQEIGKRILAWRKLRGMTLQQLADKAGVGLTTIHNLETGLWYAKMPTYLYIAEALGVSLDALIYG”, the “soluble fraction (log2)” value was -1.42.
For “HMGVPVTAPMPGKVLKVTVSVGAAVKNGDLVLVLEAMKMENEIFATANGVVKEIRSREGDTVNSGDVMMVI” the value was -0.533; for “HMGVRPAALGFQKVRIEPQVGTFREASGDVITPRGLIHAEWKRDEENALHLHYTLPDGVAYA”, -0.0327; for “HMGVSDDMARGVVRARQFLSDFAAVPLDRMTPAEAVARARQLKSELETDAKHSPWLLDVLSNA”, -0.0848.
The result for “HMGVSEIGSPAWMESKLVTLASYEGSLDGLRTLWGGVAQHRARIPVESWDRLFAAKEEGKARLVKLGRT” reads -1.19; that for “HMGVSLREVPVAEHGDWIGRPIKELGIPAEVLIVLVRRADGTTVVPKGGTVLQQGDMLVVNEWEE”, -0.426; that for “HMGVTDSSYNVLRRQILEMLSVQQRTPADLARLIEADKEEIAAVIRFLLDKGEIQMEDGMLQTK”, 0.0683.
For “HMGVVEEVAADFEGRAVVGKVDVDEQTELARRFGIMSIPTLVVMKGGKVVEQAVGARGKADIAAMLERH” the value was 0.0848.
Regarding “HMGYINLNVKVSPEWRDFWRSAYASVVAGYHQNKEHWNTIILDGSIPDKDIKRMIAESYDLVSD”, the “soluble fraction (log2)” value is -0.797.
The result for “HMGYLNDRQRLIKDFITENQPLKVSDLVKQFPNIGLSTLKKDLQYLRGEQVLTMIGKGKGSVYVLNKK” reads -0.446; that for “HMGYNDQEVKSNLITLLSTSKTGLSGVEISAQLGINRVTMTKFLNVFAAEGIIKQKNIGNLNLWLVEEGTE”, -1.58; that for “HMGYTTSFVVQLKNAVSISFDEIDQNLRKLPGVEDVVIVEEAAMAYLKVDRQHFREEQLAHFEFVRQ”, -0.29.
Regarding “HMGYVQLTAREKEVLQGLVDGASYKMIAAKLDIRFGTVHTHVKNIYEKLHVNSASEAVVKAIRQRL”, the “soluble fraction (log2)” value was -2.46.
For “HMHADIAATVVATMRQLGVLGLPRNYEIFYEALSGTNRELSLAVVSLSNRPTQDDLDRIGRRFFA” the value was -0.785; for “HMHAEEIAREAKEALERGEEFHFAGITVRSEEALEFLEEWLRKFF”, -0.659.
With “HMHALSVKFSDEAAKTLPYDILSALRDVLALDPRPGYSRDENKIYRFEYADYNISFSVKDKTLTVLSAEK”, the “soluble fraction (log2)” value was -0.384.
The result for “HMHAPRIEVVQIDPEKIGALIGPGGKNIRRITEVTGANLDIDEDNSGKIRVYASDSEAMNRALQEIDLVT” reads 0.193; that for “HMHDHKTRLQELAAQRFGSAPSYLLTADGPAHDRRFHASVEVGGRSFGPGTGKSKKRAEQVAAHIAWDALS”, 0.394; that for “HMHDIPDITDLRPLRHTLGLTLAHAAQQLNTTTATISRLERGQHRNDHLATTYRTWLHTHPT”, -0.15.
The result for “HMHDLSQQIVRYLIQQGGSSSLTDKSDPQEIYRTFKVSKKKYKQALGNLYKSKTIVITSGKIELVD” reads -2.69.
For “HMHDYNTIVGVIEMRDKNIPLTSIRQRYGIGYSGIDLILTRYKDSGLTLKEFLALDPSQAEELIYPPK” the value was -0.622.
As to “HMHEHWDGSGFPKHLRGANIPLGARVIAVADTYDSITSSRAYRAGSTHEAAEREMRRVSGTQLDPE”, the “soluble fraction (log2)” value amounted to 0.137.
